First the molecules themselves.
T1: recombinant human IGSF8 extracellular domain tagged by a human Fc region (IGSF8-hFc) (human, UniProt Q969P0 28-579, biotin label in Examples 17, 18 and 28 (site not given))
T1 construct: also called IGSF8-Fc fusion protein; IGSF8-hFc-biotin; not shown: human Fc region
T1 sequence: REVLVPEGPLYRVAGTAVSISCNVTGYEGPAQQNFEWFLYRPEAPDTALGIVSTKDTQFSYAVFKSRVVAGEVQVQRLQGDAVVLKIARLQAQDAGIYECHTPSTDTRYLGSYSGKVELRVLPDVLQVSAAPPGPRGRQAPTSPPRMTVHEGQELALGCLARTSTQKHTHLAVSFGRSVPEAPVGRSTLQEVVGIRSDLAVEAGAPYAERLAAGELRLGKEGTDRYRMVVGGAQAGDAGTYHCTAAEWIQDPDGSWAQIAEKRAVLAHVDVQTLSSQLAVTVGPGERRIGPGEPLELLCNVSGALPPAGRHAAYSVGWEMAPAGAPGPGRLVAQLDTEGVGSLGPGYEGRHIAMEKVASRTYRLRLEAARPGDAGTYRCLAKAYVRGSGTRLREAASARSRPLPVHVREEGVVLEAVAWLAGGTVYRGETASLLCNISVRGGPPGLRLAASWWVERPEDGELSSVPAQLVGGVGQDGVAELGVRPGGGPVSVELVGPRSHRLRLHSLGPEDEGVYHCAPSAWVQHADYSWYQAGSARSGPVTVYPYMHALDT

B1: L1-16 (antibody, V domains shown)
VH: QVQLVESGGGVVQPGRSLRLSCAASGFTFSTYGMHWVRQAPGKGLEWVAVIWDDGSYKYYGDSVKGRFTISRDNSKNTLYLQMNSLRAEDTAVYYCARDGSGWGYAFDIWGQGTLVTVSS
VL: DIQMTQSPSSLSASVGDRVTITCQASQDIGPWLNWYQQKPGKAPKLLIYGSPNLETGVPSRFSGSGSGTDFTFTISSLQPEDIATYYCQQYDSFPYTFGQGTKVEIK
B2: L1-25 (antibody, V domains shown)
VH: QVQLVESGGGVVQPGRSLRLSCAASGFTFSTYGMHWVRQAPGKGLEWVAVIWDDGSYKYYGDSVKGRFTISRDNSKNTLYLQMNSLRAEDTAVYYCARDGSGWGYAFDIWGQGTLVTVSS
VL: DIQLTQSPSSLSASVGDRVTITCQASQDISPWLNWYQHKPGKAPKPLVFGSPNLETGVPSRFSASGSGTDFTLTISSLQPEDFATYYCQQYDSFPYTFGQGTKVEIK
B3: L1-27 (antibody, V domains shown)
VH: QVQLVESGGGVVQPGRSLRLSCAASGFTFSTYGMHWVRQAPGKGLEWVAVIWDDGSYKYYGDSVKGRFTISRDNSKNTLYLQMNSLRAEDTAVYYCARDGSGWGYAFDIWGQGTLVTVSS
VL: DIQLTQSPSSLSASVGDRVTITCQASQDISYNLNWYQHKPGKAPKPLVFGSPNLETGVPSRFSASGSGTDFTLTISSLQPEDFATYYCQQYDSFPYTFGQGTKVEIK
B4: L1-23 (antibody, V domains shown)
VH: QVQLVESGGGVVQPGRSLRLSCAASGFTFSTYGMHWVRQAPGKGLEWVAVIWDDGSYKYYGDSVKGRFTISRDNSKNTLYLQMNSLRAEDTAVYYCARDGSGWGYAFDIWGQGTLVTVSS
VL: DIQLTQSPSSLSASVGDRVTITCQASQDIGPWLNWYQHKPGKAPKPLVFGSPNLETGVPSRFSASGSGTDFTLTISSLQPEDFATYYCQQYDSFPYTFGQGTKVEIK
B5: L1-26 (antibody, V domains shown)
VH: QVQLVESGGGVVQPGRSLRLSCAASGFTFSTYGMHWVRQAPGKGLEWVAVIWDDGSYKYYGDSVKGRFTISRDNSKNTLYLQMNSLRAEDTAVYYCARDGSGWGYAFDIWGQGTLVTVSS
VL: DIQLTQSPSSLSASVGDRVTITCQASQDISPYLNWYQHKPGKAPKPLVFGSPNLETGVPSRFSASGSGTDFTLTISSLQPEDFATYYCQQYDSFPYTFGQGTKVEIK
B6: L1-17 (antibody, V domains shown)
VH: QVQLVESGGGVVQPGRSLRLSCAASGFTFSTYGMHWVRQAPGKGLEWVAVIWDDGSYKYYGDSVKGRFTISRDNSKNTLYLQMNSLRAEDTAVYYCARDGSGWGYAFDIWGQGTLVTVSS
VL: DIQMTQSPSSLSASVGDRVTITCQASQDIGPWLNWYQQKPGKAPKLLIYDAPNLETGVPSRFSGSGSGTDFTFTISSLQPEDIATYYCQQYDSFPYTFGQGTKVEIK
B7: L1-24 (antibody, V domains shown)
VH: QVQLVESGGGVVQPGRSLRLSCAASGFTFSTYGMHWVRQAPGKGLEWVAVIWDDGSYKYYGDSVKGRFTISRDNSKNTLYLQMNSLRAEDTAVYYCARDGSGWGYAFDIWGQGTLVTVSS
VL: DIQLTQSPSSLSASVGDRVTITCQASQDIGPYLNWYQHKPGKAPKPLVFGSPNLETGVPSRFSASGSGTDFTLTISSLQPEDFATYYCQQYDSFPYTFGQGTKVEIK
B8: L1-22 (antibody, V domains shown)
VH: QVQLVESGGGVVQPGRSLRLSCAASGFTFSTYGMHWVRQAPGKGLEWVAVIWDDGSYKYYGDSVKGRFTISRDNSKNTLYLQMNSLRAEDTAVYYCARDGSGWGYAFDIWGQGTLVTVSS
VL: DIQLTQSPSSLSASVGDRVTITCQASQDISPWLNWYQHKPGKAPKPLIYGSPNLETGVPSRFSGSGSGTDFTFTISSLQPEDIATYYCQQYDSFPYTFGQGTKVEIK
B9: L1-21 (antibody, V domains shown)
VH: QVQLVESGGGVVQPGRSLRLSCAASGFTFSTYGMHWVRQAPGKGLEWVAVIWDDGSYKYYGDSVKGRFTISRDNSKNTLYLQMNSLRAEDTAVYYCARDGSGWGYAFDIWGQGTLVTVSS
VL: DIQLTQSPSSLSASVGDRVTITCQASQDIGPWLNWYQHKPGKAPKPLIYGSPNLETGVPSRFSGSGSGTDFTFTISSLQPEDIATYYCQQYDSFPYTFGQGTKVEIK
B10: L1-29 (antibody, V domains shown)
VH: QVQLVESGGGVVQPGRSLRLSCAASGFTFSTYGMHWVRQAPGKGLEWVAVIWDDGSYKYYGDSVKGRFTISRDNSKNTLYLQMNSLRAEDTAVYYCARDGSGWGYAFDIWGQGTLVTVSS
VL: DIQLTQSPSSLSASVGDRVTITCQASQDIGPWLNWYQHKPGKAPKPLVFDAPNLETGVPSRFSASGSGTDFTLTISSLQPEDFATYYCQQYDSFPYTFGQGTKVEIK
B11: L1-30 (antibody, V domains shown)
VH: QVQLVESGGGVVQPGRSLRLSCAASGFTFSTYGMHWVRQAPGKGLEWVAVIWDDGSYKYYGDSVKGRFTISRDNSKNTLYLQMNSLRAEDTAVYYCARDGSGWGYAFDIWGQGTLVTVSS
VL: DIQLTQSPSSLSASVGDRVTITCQASQDIGPWLNWYQHKPGKAPKPLVFGADNLETGVPSRFSASGSGTDFTLTISSLQPEDFATYYCQQYDSFPYTFGQGTKVEIK
B12: L1-28 (antibody, V domains shown)
VH: QVQLVESGGGVVQPGRSLRLSCAASGFTFSTYGMHWVRQAPGKGLEWVAVIWDDGSYKYYGDSVKGRFTISRDNSKNTLYLQMNSLRAEDTAVYYCARDGSGWGYAFDIWGQGTLVTVSS
VL: DIQLTQSPSSLSASVGDRVTITCQASQDIEWWLNWYQHKPGKAPKPLIYGSPNLETGVPSRFSGSGSGTDFTFTISSLQPEDIATYYCQQYDSFPYTFGQGTKVEIK
B13: L1-19 (antibody, V domains shown)
VH: QVQLVESGGGVVQPGRSLRLSCAASGFTFSTYGMHWVRQAPGKGLEWVAVIWDDGSYKYYGDSVKGRFTISRDNSKNTLYLQMNSLRAEDTAVYYCARDGSGWGYAFDIWGQGTLVTVSS
VL: DIQMTQSPSSLSASVGDRVTITCQASQDISPYLNWYQQKPGKAPKLLIYDAPNLETGVPSRFSGSGSGTDFTFTISSLQPEDIATYYCQQYDSFPYTFGQGTKVEIK

In general, Kd refers to the constant that tells how readily two partners part at equilibrium. The term koff denotes the first-order rate constant of dissociation. Usually kon stands for the second-order rate constant of association.

This test has as its target T1, recombinant human IGSF8 extracellular …. Kind of test: SPR, Ab captured. The method, then:
The binding affinities of the L1 and L2 antibodies to IGSF8 recombinant protein were determined by surface plasmon resonance (SPR). Briefly, anti-human Fab antibody was imobilized on acarboxyl-derivatized SPR chip surface, and the antibodies were captured on the resulting surface at 5 μg/ml for 30 seconds.
(In general: SPR reads the build-up and loss of mass on a sensor chip optically.)
In the case of B1, the Kd came out at 3.33 nM, the koff stood at 0.00111 s⁻¹ and the association rate constant (kon) was 333000 M⁻¹ s⁻¹.
In the same order, the values of B2 are 4.46 nM, 0.0022 s⁻¹ and 492000 M⁻¹ s⁻¹.
In the same order, the values of B3 are 1.88 nM, 0.000835 s⁻¹ and 444000 M⁻¹ s⁻¹.
In the same order, the values of B4 are 0.00235 nM, 1.19e-06 s⁻¹ and 506000 M⁻¹ s⁻¹.
In the case of B5, the Kd was 0.987 nM, the koff came out at 0.000497 s⁻¹ and the kon turned out to be 503000 M⁻¹ s⁻¹.
Regarding B6, the Kd is 3.78 nM, the koff is 0.0012 s⁻¹ and the kon was determined as 318000 M⁻¹ s⁻¹.
Turning to B7, the Kd was found to be 0.0068 nM, the koff came to 3.06e-06 s⁻¹ and the kon turned out to be 450000 M⁻¹ s⁻¹.
On the same counts, the results for B8 are 2.94 nM, 0.000363 s⁻¹ and 123000 M⁻¹ s⁻¹.
On the same counts, the results for B9 are 6.71 nM, 0.00272 s⁻¹ and 406000 M⁻¹ s⁻¹.
Turning to B10, the Kd came out at 0.0112 nM, the koff came out at 4.25e-06 s⁻¹ and the kon worked out at 381000 M⁻¹ s⁻¹.
In the same order, the values of B11 are 0.00642 nM, 3.03e-06 s⁻¹ and 472000 M⁻¹ s⁻¹.
On the same counts, the results for B12 are 0.00117 nM, 4.28e-07 s⁻¹ and 367000 M⁻¹ s⁻¹.
With B13, the Kd was 4.58 nM, the koff stood at 0.000705 s⁻¹ and the kon turned out to be 154000 M⁻¹ s⁻¹.

The values are drawn from US20230303695A1 (SHANGHAI XBH BIOTECHNOLOGY, published 2023).
